Experimental findings from publication PMC12077149, “Evolution of PqsE as a Pseudomonas aeruginosa-specific regulator of LuxR-type receptors: insights from Pseudomonas and Burkholderia” (mBio, 2025) are described below.

For data set [1], the system named is CC(=O)CC(=O)SCCNC(=O)CCNC(=O)[C@H](O)C(C)(C)COP(=O)(O)OP(=O)(O)OC[C@H]1O[C@@H](n2cnc3c(N)ncnc32)[C@H](O)[C@@H]1OP(=O)(O)O. Kind of data set: purified protein. The conditions noted are these: 0.1 M Tris-HCl pH 8.0, 2 mM DTNB, 2 µM enzyme, substrate up to 1 mM.
Data set [2] deals with CCCC(=O)Oc1ccc2c(C)cc(=O)oc2c1. The data set is described as follows: purified protein. The following applies: 50 mM Tricine, 0.01% Triton X-100; 2 µM enzyme; substrate up to 8 µM.

Consider “PqsE (Pseudomonas aeruginosa UCBPP-PA14)”, for which, in data set [1], the Km is 3200 ± 200 µM, the kcat turned out to be 0.438 ± 0.05 s⁻¹ and the kcat/Km amounted to 140 M⁻¹ s⁻¹. Moreover, in data set [2], the Km amounted to 8.1 ± 0.1 µM, the kcat was 0.0197 ± 0.09 s⁻¹ and the kcat/Km is 2400 M⁻¹ s⁻¹.

The term Km denotes the concentration of substrate that gives half-maximal velocity. One may read the kcat as the number of substrate molecules converted per active site and unit of time at saturation. The term kcat/Km denotes the turnover number divided by the Michaelis constant.
